B1: Merlin (Homo sapiens), P35240-3 (parent)
chain: MAGAIASRMSFSSLKRKQPKTFTVRIVTMDAEMEFNCEMKWKGKDLFDLVCRTLGLRETWFFGLQYTIKDTVAWLKMDKKVLDHDVSKEEPVTFHFLAKFYPENAEEELVQEITQHLFFLQVKKQILDEKIYCPPEASVLLASYAVQAKYGDYDPSVHKRGFLAQEELLPKRVINLYQMTPEMWEERITAWYAEHRGRARDEAEMEYLKIAQDLEMYGVNYFAIRNKKGTELLLGVDALGLHIYDPENRLTPKISFPWNEIRNISYSDKEFTIKPLDKKIDVFKFNSSKLRVNKLILQLCIGNHDLFMRRRKADSLEVQQMKAQAREEKARKQMERQRLAREKQMREEAERTRDELERRLLQMKEEATMANEALMRSEETADLLAEKAQITEEEAKLLAQKAAEAEQEMQRIKATAIRTEEEKRLMEQKVLEAEVLALKMAEESERRAKEADQLKQDLQEAREAERRAKQKLLEIATKPTYPPMNPIPAPLPPDIPSFNLIGDSLSFDFKDTDMKRLSMEIEKEKVEYMEKSKHLQEQLNELKTEIEALKLKERETALDILHNENSDRGGSSKHNTIKKPQAQGRRPICI

Legend:
[1] = variants of: B1; conditions: with eif3c_human EIF3C
HGS, O14964-2 = variants of: B1; conditions: with HGS
HGS, O14964-2, sequence (O14964 other isoform, or with tags, fused parts or gaps): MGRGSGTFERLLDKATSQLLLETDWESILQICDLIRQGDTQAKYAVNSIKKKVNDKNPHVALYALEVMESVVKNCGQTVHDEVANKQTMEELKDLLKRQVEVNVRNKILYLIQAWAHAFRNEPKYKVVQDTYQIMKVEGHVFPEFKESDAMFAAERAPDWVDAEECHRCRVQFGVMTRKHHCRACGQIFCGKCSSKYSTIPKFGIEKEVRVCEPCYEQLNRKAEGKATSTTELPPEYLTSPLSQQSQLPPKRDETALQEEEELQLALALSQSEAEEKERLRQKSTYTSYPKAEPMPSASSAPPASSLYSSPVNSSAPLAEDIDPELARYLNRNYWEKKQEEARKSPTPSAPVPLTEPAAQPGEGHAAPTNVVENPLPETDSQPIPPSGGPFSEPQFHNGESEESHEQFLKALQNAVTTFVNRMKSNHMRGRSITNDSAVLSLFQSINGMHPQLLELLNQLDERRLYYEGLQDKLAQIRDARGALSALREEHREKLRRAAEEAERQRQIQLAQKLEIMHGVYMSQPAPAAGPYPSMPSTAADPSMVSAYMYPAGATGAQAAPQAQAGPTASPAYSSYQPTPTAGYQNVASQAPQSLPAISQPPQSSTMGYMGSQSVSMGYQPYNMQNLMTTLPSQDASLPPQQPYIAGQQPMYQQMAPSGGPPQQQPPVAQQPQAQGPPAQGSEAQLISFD

HGS, O14964-1 = variants of: B1; conditions: with HGS
HGS, O14964-1, sequence (O14964 whole entry): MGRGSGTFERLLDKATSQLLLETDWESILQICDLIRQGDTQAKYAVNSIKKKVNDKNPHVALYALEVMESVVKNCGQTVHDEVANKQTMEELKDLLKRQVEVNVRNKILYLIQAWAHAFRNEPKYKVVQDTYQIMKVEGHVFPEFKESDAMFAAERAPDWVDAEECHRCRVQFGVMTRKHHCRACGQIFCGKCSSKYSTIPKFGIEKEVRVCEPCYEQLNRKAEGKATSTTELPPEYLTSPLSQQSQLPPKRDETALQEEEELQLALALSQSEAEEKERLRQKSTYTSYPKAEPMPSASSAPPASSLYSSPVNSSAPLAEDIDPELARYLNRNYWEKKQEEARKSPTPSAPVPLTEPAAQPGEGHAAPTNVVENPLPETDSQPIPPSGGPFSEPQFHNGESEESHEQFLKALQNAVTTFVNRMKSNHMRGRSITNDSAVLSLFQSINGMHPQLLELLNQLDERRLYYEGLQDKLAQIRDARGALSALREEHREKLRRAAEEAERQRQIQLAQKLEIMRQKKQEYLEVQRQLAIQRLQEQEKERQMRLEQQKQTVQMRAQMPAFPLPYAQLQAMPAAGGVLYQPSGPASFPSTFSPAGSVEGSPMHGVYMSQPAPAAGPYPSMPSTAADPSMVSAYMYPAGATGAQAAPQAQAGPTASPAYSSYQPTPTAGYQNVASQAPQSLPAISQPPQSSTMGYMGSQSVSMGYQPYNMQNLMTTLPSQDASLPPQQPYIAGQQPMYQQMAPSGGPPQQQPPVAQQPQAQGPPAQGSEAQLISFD

NF2, P35240-1 = variants of: B1; conditions: with NF2, P35240-1
[2] = variants of: B1; conditions: with sptb2_human SPTBN1, Q01082
sptb2_human SPTBN1, Q01082, sequence (Q01082 whole entry): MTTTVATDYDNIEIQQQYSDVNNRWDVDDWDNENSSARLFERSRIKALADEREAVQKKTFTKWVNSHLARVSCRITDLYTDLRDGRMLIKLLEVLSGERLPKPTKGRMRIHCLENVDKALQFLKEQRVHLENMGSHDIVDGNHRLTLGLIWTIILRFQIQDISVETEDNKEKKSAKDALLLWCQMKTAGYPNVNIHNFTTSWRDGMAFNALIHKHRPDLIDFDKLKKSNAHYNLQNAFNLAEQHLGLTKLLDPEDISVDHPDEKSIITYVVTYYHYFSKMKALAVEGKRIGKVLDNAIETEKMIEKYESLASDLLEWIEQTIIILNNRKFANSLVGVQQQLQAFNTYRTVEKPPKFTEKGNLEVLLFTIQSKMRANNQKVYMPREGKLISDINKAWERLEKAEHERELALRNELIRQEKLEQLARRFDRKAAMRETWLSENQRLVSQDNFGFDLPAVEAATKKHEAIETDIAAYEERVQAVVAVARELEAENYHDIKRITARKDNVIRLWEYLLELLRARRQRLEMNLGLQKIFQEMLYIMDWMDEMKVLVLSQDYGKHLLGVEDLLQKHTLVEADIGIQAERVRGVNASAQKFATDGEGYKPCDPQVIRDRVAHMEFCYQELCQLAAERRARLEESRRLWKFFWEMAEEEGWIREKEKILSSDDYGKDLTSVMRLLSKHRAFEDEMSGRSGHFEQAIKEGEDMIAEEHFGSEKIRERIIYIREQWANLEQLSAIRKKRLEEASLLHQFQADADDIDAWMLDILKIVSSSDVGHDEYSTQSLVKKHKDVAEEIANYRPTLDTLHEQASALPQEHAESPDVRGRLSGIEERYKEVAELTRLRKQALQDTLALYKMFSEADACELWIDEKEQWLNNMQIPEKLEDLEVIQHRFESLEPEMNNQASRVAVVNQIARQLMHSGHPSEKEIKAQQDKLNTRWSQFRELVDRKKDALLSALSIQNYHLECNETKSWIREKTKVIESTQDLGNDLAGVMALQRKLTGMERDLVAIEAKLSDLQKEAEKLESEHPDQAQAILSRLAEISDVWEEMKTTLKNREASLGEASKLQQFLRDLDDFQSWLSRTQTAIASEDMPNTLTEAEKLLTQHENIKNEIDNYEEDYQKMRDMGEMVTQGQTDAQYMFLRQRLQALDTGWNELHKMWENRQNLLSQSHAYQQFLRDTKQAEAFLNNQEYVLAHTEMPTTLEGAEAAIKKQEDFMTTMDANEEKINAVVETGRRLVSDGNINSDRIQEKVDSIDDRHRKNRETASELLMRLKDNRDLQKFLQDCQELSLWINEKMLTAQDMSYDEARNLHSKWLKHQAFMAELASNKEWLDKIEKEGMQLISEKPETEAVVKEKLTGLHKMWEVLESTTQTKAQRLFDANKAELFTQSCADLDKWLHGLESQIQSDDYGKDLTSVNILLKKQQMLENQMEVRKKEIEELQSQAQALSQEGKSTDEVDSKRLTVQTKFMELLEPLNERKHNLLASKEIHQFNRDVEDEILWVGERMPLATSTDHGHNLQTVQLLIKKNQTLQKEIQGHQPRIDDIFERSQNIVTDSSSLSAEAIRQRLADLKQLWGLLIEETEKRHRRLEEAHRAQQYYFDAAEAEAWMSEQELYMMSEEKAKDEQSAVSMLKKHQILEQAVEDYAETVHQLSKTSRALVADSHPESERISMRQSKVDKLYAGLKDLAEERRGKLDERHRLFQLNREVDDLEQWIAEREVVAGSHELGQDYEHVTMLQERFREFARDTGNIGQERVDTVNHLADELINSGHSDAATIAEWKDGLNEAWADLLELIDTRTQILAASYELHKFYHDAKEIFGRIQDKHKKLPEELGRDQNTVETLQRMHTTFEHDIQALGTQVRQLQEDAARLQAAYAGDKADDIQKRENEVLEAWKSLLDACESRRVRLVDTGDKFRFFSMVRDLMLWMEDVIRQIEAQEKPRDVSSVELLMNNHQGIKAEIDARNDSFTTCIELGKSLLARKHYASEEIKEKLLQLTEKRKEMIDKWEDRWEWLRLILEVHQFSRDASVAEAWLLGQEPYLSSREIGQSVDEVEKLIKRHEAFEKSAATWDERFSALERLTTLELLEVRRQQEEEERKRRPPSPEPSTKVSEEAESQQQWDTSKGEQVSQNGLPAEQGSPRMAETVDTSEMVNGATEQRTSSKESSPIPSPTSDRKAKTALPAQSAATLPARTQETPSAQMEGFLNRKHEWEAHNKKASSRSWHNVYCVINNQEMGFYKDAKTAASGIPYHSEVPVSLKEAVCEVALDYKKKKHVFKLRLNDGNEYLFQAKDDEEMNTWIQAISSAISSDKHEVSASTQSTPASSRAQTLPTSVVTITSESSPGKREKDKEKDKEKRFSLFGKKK

Variant	effect of a mutation on the interaction [1]	effect of a mutation on the interaction (HGS, O14964-2)	effect of a mutation on the interaction (HGS, O14964-1)	effect of a mutation on the interaction (NF2, P35240-1)	effect of a mutation on the interaction [2]
N220Y	with no effect	increasing interaction strength	increasing interaction strength	with no effect	increasing interaction strength
Q538P	increasing interaction strength	disrupting interaction strength	disrupting interaction strength	decreasing interaction strength	disrupting interaction strength
T352M	increasing interaction strength	with no effect	increasing interaction strength	decreasing interaction strength	decreasing interaction strength
W41C	with no effect	with no effect	with no effect	decreasing interaction strength	increasing interaction strength
L46R	disrupting interaction strength	decreasing interaction strength	decreasing interaction strength	disrupting interaction strength	disrupting interaction strength
I273F	decreasing interaction strength	increasing interaction strength	increasing interaction strength	with no effect	increasing interaction strength
L535P	disrupting interaction strength	disrupting interaction strength	disrupting interaction strength	decreasing interaction strength	disrupting interaction strength
G197C	with no effect	with no effect	with no effect	increasing interaction strength	decreasing interaction strength
K364I	disrupting interaction strength	disrupting interaction strength	disrupting interaction strength	decreasing interaction strength	disrupting interaction strength
V219M	with no effect	with no effect	increasing interaction strength	with no effect	increasing interaction strength
L360P	increasing interaction strength	disrupting interaction strength	disrupting interaction strength	decreasing interaction strength	decreasing interaction strength

Reference: IntAct's records for PubMed 11779178
